This note sets out measurements from US20160376372A1 (VACCINEX, published 2016).

The target in assay [1] is human CD20 antigen (human) (UniProt P11836). The experiment in a line: flow cytometry, EB1 cells (CD20 positive). A general note: In flow cytometry, cells or beads pass a laser one at a time.
For assay [2] the target is unchanged. Nature of the assay: flow cytometry, Daudi cells (CD20 positive).
For assay [3] the target is unchanged. Nature of the assay: flow cytometry, EHEB cells (CD20 positive).
For assay [4] the target is unchanged. Nature of the assay: flow cytometry, Daudi cells (CD20 positive). This is another data set of the same source.
Assay [5] has as its target T1, human CD20 antigen (human, UniProt P11836 1-297).
T1 construct: whole, on cells; also called Bp35; B1
T1 sequence (looked up): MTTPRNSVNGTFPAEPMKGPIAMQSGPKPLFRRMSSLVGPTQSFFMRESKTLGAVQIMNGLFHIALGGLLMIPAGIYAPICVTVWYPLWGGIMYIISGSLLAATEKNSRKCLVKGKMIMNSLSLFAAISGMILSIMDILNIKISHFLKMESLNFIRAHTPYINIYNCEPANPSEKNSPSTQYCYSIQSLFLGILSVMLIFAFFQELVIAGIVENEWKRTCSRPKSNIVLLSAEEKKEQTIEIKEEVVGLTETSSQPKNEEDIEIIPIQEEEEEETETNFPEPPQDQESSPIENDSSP
The experiment in a line: flow cytometry, Daudi cells (CD20 positive). The protocol: (§1) Binding specificity was assessed by Fluorometric Microvolume Assay Technology (FMAT, Applied Biosystems 8200 Cellular Detection System) and Flow Cytometry, which tabulates Mean Fluorescence Intensities (MFI) of staining on CD20 positive (CD20⁺) and CD20 negative cell lines.

For assay [6], the target named is T1, human CD20 antigen. The experiment in a line: flow cytometry, CHO.CD20 cells (CD20 positive). The protocol: (§2) Binding specificity was assessed by Flow Cytometry, which tabulates Mean Fluorescence Intensities (MFI) of staining on CD20 positive (CD20⁺) and CD20 negative cell lines.
Assay [7] deals with T1, human CD20 antigen. Nature of the assay: flow cytometry, EB1 cells (CD20 positive). As for the experimental part: as §1
The target in assay [8] is T1, human CD20 antigen. The experiment in a line: flow cytometry, Daudi cells (CD20 positive). The protocol: as §2
The source holds these as a separate data set.

For assay [9], the target named is T1, human CD20 antigen. The experiment in a line: flow cytometry, EHEB cells (CD20 positive). As for the experimental part: as §2

In the case of mAb 271 (rituximab-sequence antibody), the Mean Fluorescence Intensity (MFI) in assay [1] worked out at 429 MFI; in [2], 145 MFI; in assay [3], 130 MFI; in assay [4], 941 MFI.

B1: optimized humanized mAb 1237 (antibody, V domains shown)
VH: QVQLVQSGAEVKKPGSSVKVSCKASGYTFTSYNMHWVRQAPGQGLEWIGAIYPGNGDTSYNQKFKGKATITADKSTSTAYMELSSLRSDDTAVYYCARSTYYAGDWNFNNWGQGTLVTVSS
VL: DIQMTQSPSSLSASVGDRVTITCRASSSVSYIHWFQQKPGKAPKPLIYAASSLQSGVPSRFSGSGSGTDYTLTISSLQPEDFATYYCQQWTSNPPTFGGGTKLEIK
notes: detected with anti-human Ig Fc
On to B1, for which the “Mean Fluorescence Intensity (MFI)” value in the assay with human CD20 antigen [5] is 132 MFI; in the assay with human CD20 antigen [6], 106 MFI; with human CD20 antigen [7], 395 MFI; in the assay with human CD20 antigen [8] it was 1370 MFI; with human CD20 antigen [9], 161 MFI.

B2: optimized humanized mAb 1589 (antibody, V domains shown)
VH: QVQLVQSGAEVKKPGSSVKVSCKASGYTFTSYNMHWVRQAPGQGLEWIGAIYPGNGATSYNQKFKGKATITADKSTSTAYMELSSLRSDDTAVYYCARSTYYAGDWNFNNWGQGTLVTVSS
VL: DIQMTQSPSSLSASVGDRVTITCRASSSVSYIHWFQQKPGKAPKPLIYAASSLQSGVPSRFSGSGSGTDYTLTISSLQPEDFATYYCQQWTSNPPTFGGGTKLEIK
Turning to B2, the “Mean Fluorescence Intensity (MFI)” value with human CD20 antigen [6] stood at 140 MFI; with human CD20 antigen [8] it was 1030 MFI; with human CD20 antigen [9], 345 MFI.

B3: optimized humanized mAb 1652 (antibody, V domains shown)
VH: QVQLVQSGAEVKKPGSSVKVSCKASGYTFTSYNMHWVRQAPGQGLEWIGAIYPGNGATSYNQKFKGKATITADKSTSTAYMELSSLRSDDTAVYYCARSTYYAGDWNFNNWGQGTLVTVSS
VL: DIQMTQSPSSLSASVGDRVTITCRASSSVSYIHWFQQKPGKAPKPLIYAASSLQSGVPSRFSGSGSGTDYTLTISSLQPEDFATYYCQQWQSNPPTFGGGTKLEIK
On to B3, for which the “Mean Fluorescence Intensity (MFI)” value with human CD20 antigen [6] worked out at 135 MFI; with human CD20 antigen [8], 1420 MFI; with human CD20 antigen [9] it was 529 MFI.

B4: optimized humanized mAb 1238 (antibody, V domains shown)
VH: QVQLVQSGAEVKKPGSSVKVSCKASGYTFTSYNMHWVRQAPGQGLEWIGAIYPGNGDTSYNQKFKGKATITADKSTSTAYMELSSLRSDDTAVYYCARSTYYAGDWNFNDWGQGTLVTVSS
VL: DIQMTQSPSSLSASVGDRVTITCRASSSVSYIHWFQQKPGKAPKPLIYAASSLQSGVPSRFSGSGSGTDYTLTISSLQPEDFATYYCQQWTSNPPTFGGGTKLEIK
notes: as for B1
Consider B4, for which the results for the “Mean Fluorescence Intensity (MFI)” value in the assay with human CD20 antigen [5] and with human CD20 antigen [7] were 114 MFI and 389 MFI, respectively.

B5: optimized humanized mAb 1692 (antibody, V domains shown)
VH: QVQLVQSGAEVKKPGSSVKVSCKASGYTFTSYNMHWVRQAPGQGLEWIGAIYPGNGDTSYNQKFKGKATITADKSTSTAYMELSSLRSDDTAVYYCARSTYYAGDWNFGNWGQGTLVTVSS
VL: DIQMTQSPSSLSASVGDRVTITCRASSSVSYIHWFQQKPGKAPKPLIYAASSLQSGVPSRFSGSGSGTDYTLTISSLQPEDFATYYCQQWTSNPPTFGGGTKLEIK
As to B5, the “Mean Fluorescence Intensity (MFI)” value with human CD20 antigen [6] is 137 MFI; with human CD20 antigen [8], 1670 MFI; in the assay with human CD20 antigen [9], 450 MFI.

B6: optimized humanized mAb 1588 (antibody, V domains shown)
VH: QVQLVQSGAEVKKPGSSVKVSCKASGYTFTFYNMHWVRQAPGQGLEWIGAIYPGNGDTSYNQKFKGKATITADKSTSTAYMELSSLRSDDTAVYYCARSTYYAGDWNFNNWGQGTLVTVSS
VL: DIQMTQSPSSLSASVGDRVTITCRASSSVSYIHWFQQKPGKAPKPLIYAASSLQSGVPSRFSGSGSGTDYTLTISSLQPEDFATYYCQQWTSNPPTFGGGTKLEIK
In the case of B6, the “Mean Fluorescence Intensity (MFI)” value with human CD20 antigen [6] was 140 MFI; in the assay with human CD20 antigen [8], 2070 MFI; with human CD20 antigen [9] it was 338 MFI.

B7: optimized humanized mAb 1590 (antibody, V domains shown)
VH: QVQLVQSGAEVKKPGSSVKVSCKASGYTFTSYNMHWVRQAPGQGLEWIGAIYPGNGLTSYNQKFKGKATITADKSTSTAYMELSSLRSDDTAVYYCARSTYYAGDWNFNNWGQGTLVTVSS
VL: DIQMTQSPSSLSASVGDRVTITCRASSSVSYIHWFQQKPGKAPKPLIYAASSLQSGVPSRFSGSGSGTDYTLTISSLQPEDFATYYCQQWTSNPPTFGGGTKLEIK
For B7, the figures for the “Mean Fluorescence Intensity (MFI)” value with human CD20 antigen [6], with human CD20 antigen [8] and with human CD20 antigen [9] were 135 MFI, 1630 MFI and 429 MFI, respectively.

B8: optimized humanized mAb 1236 (antibody, V domains shown)
VH: QVQLVQSGAEVKKPGSSVKVSCKASGYTFTSYNMHWVRQAPGQGLEWIGAIYPGNGDTSYNQKFKGKATITADKSTSTAYMELSSLRSDDTAVYYCARSTYYGGDWNFNNWGQGTLVTVSS
VL: DIQMTQSPSSLSASVGDRVTITCRASSSVSYIHWFQQKPGKAPKPLIYAASSLQSGVPSRFSGSGSGTDYTLTISSLQPEDFATYYCQQWTSNPPTFGGGTKLEIK
notes: as for B1
Take B8: the “Mean Fluorescence Intensity (MFI)” value stood at 145 MFI in the assay with human CD20 antigen [5] and 409 MFI with human CD20 antigen [7].
